Test results published in paper PMC10070186, “Unusual peptide-binding proteins guide pyrroloindoline alkaloid formation in crocagin biosynthesis” (Nature Chemistry, 2023).

Legend:
[1] = target: CgnB (Chondromyces crocatus CM c5); test: MST; microscale thermophoresis of two components; which one was titrated is told only in Fig. 3c
[2] = target: CgnE (Chondromyces crocatus CM c5); test: as above
Chain of CgnE (Chondromyces crocatus CM c5) (main, as listed by the source): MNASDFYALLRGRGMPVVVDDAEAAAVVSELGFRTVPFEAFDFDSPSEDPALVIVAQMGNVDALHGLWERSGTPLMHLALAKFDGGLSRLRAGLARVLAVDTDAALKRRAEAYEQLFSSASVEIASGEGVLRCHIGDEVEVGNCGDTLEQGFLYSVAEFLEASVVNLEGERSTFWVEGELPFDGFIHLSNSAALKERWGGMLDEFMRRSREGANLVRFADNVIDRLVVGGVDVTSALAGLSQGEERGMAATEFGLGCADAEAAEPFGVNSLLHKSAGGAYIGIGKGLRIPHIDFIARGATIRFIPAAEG

Kd [1]: 10.5 µM
Kd [2]: 1.8 µM
Binder: MKKTIKQISAGDRSKKGNIYW (modifications not checked) [CgnA, crocagin precursor peptide]
